# Data: the supplement of paper PMC10567573
# B1: NECAB1 (parent)
# chain: NLDTEELCEYFSQHLGEYENVLAA
# B2: KRT18 (parent)
# chain: KSQDLAKIMADIRAQYDELARKNR
# Variants of: B1
# Assay: protein stability index of a GFP-peptide fusion (GPS, HEK-293T) (PSI 1-6); higher = more stable
# Conditions: c terminus: a fixed tail appended
# 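Also: lentivirally expressed fusions sorted by FACS into six bins by GFP to DsRed ratio, PSI derived from sequencing read proportions per bin multiplied by bin number.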
row,Variant,protein stability index
1,S12T,2.91
2,S12Y,2.91
3,S12H,2.88
4,S12C,2.53
5,S12L,1.92
6,E17T,2.51
7,E17C,2.31
8,E17M,2.17
9,E17L,2.62
10,E17S,2.99
11,E17A,2.12
12,E17P,2.64
13,G16R,1.78
14,G16L,1.9
15,G16C,1.88
16,G16V,2.07
17,G16P,2.03
18,G16H,1.48
19,L7Q,4.13
20,L7W,3.85
21,L7V,4.59
22,L7E,4.77
23,L7G,4.79
24,E5A,1.56

row,Variant,protein stability index
1,E5D,3.04
2,E5Q,1.97
3,E5R,2.13
4,E5W,1.98
5,E5L,1.89
6,E5N,2.4
7,A23I,2.02
8,A23F,2.28
9,A23D,4.52
10,A23Q,3.68
11,V21S,3.88
12,V21P,4.46
13,V21F,2.08
14,V21Q,3.52
15,V21T,3.43
16,V21K,2.07
17,A24V,2.8
18,A24I,2.26
19,A24M,1.92
20,A24Y,2.59
21,A24G,2.22
22,A24R,1.82
23,A24P,3.43
24,A24T,2.99

row,Variant,protein stability index
1,A24Q,3.12
2,C8I,2.52
3,C8E,4.36
4,C8D,4.39
5,C8Y,3.46
6,C8V,3.04
7,C8P,4.44
8,C8M,3.41
9,C8T,3.62
10,C8W,3.28
11,C8G,4.56
12,C8N,4.18
13,H14L,2.09
14,H14Q,3.35
15,H14A,3.31
16,H14I,1.87
17,H14N,2.55
18,H14C,3.63
19,H14Y,2.19
20,H14D,3.86
21,Y10C,4.46
22,Y10L,4.08
23,Y10N,4.58
24,Y10P,4.47

row,Variant,protein stability index
1,Y10F,3.17
2,Y10G,4.44
3,Y10Q,4.67
4,Y10T,4.59
5,D3W,2.12
6,D3Q,1.94
7,D3M,1.88
8,D3C,2.12
9,D3T,2.57
10,D3I,1.41
11,L2P,1.8
12,L2N,3.72
13,L2D,4.72
14,L2Y,2.78
15,L2Q,4.12
16,L2W,2.21
17,Y18S,4.56
18,Y18F,2.31
19,Y18G,4.46
20,Y18K,4.71
21,Y18D,5.13
22,Y18C,4.03
23,Y18E,5.13
24,Y18M,3.6

row,Variant,protein stability index
1,E19L,1.82
2,E19M,2.18
3,E19K,2.67
4,E19H,1.97
5,E19S,2.11
6,E19R,1.84
7,E19G,2.34
8,E9M,1.9
9,E9W,1.77
10,E9P,3.97
11,E9N,2.21
12,E9A,1.99
13,E9R,1.97
14,E9F,1.8
15,E9C,2.55
16,N20W,2.03
17,L15G,4.38
18,L15M,3.07
19,L15R,3.1
20,L15C,2.92
21,L15I,1.97
22,F11A,4.18
23,F11R,5.19
24,F11T,4.82

row,Variant,protein stability index
1,F11E,5.25
2,F11V,3.9
3,L22P,4.25
4,T4D,4.33
5,T4E,4.15
6,T4P,3.56
7,T4Q,3.59
8,T4F,2.32
9,T4Y,2.97
10,E6C,2.68
11,E6R,1.8
12,E6W,2.23
13,E6H,2
14,Q13S,2.87
15,Q13V,2.7
16,Q13A,2.5
17,Q13F,2.27
18,Q13H,2.32
19,Q13P,3.71
20,N1M,3.17
21,N1E,3.7
22,N1W,1.71
23,N1G,3.68

# Variants of: B2
# Assay: as above
# Conditions: c terminus: a fixed tail appended
row,Variant,protein stability index
1,A20Q,2.94
2,A20K,3.19
3,K22P,2.85
4,N23F,2.07
5,R21M,2.83
6,R21E,2.14
7,Y16S,3.88
8,D4E,2.5
9,I8E,4.17
10,I8M,3.42
11,D17P,3.16
12,I12W,1.88
13,I12E,5.46
14,E18S,2.72
15,E18Q,2.68
16,E18F,2.74
17,E18T,2.35
18,L5I,2.38
19,L19G,3.44
20,L19W,2.38
21,D11T,2.02
22,D11H,2.71
23,D11Y,1.7
24,A6K,2.28
